Values quoted from earlier work, collected in publication PMC4216181 (Journal of nuclear medicine : official publication, Society …, 2009).

Biological target: HER2 (Homo sapiens, UniProt P04626)
Settings: read-out: dissociation constant [KD]; HER2, nonmodified 2-helix protein; cited from earlier work

Substance: [homoC]NKEMRNRYWEAALDPNLNNQQK-RAKIRSIYDDP[homoC]-NH2 (disulfide) [MUT-DS]
- Kd: 5 nM
